From patent US20250092158A1
Values belong to the binder of their own block, whether it stands above or below them.

Biological target: human Quiescin Sulfhydryl Oxidase 1 (QSOX1) (human) (UniProt O00391)
Experiment: oxygen electrode assay of QSOX1 (25 nM) on DTT (200 uM), antibody varied, Morrison tight-binding fit

Chain of UniProt O00391 (O00391 33-546): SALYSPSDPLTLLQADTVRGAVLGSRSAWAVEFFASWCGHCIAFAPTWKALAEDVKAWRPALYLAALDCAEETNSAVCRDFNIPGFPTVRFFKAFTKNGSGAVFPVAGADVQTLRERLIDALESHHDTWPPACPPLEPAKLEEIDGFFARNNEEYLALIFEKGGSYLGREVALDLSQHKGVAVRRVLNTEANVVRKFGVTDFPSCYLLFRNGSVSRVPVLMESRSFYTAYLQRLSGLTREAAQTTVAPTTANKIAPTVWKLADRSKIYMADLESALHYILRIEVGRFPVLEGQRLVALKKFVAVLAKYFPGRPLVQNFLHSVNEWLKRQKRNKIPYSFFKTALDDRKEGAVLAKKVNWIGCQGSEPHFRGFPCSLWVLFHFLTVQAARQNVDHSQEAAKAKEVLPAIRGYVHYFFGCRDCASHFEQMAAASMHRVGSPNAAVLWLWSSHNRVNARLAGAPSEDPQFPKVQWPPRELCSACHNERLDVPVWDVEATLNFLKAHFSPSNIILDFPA

B3: humanized anti-QSOX1 antibody H3K4 (antibody, human IgG1, kappa, V domains shown)
VH: QVQLVESGGGLVQPGGSLRLSCSVSGFSLTGYGVNWVRQAPGKGLEWLGMIWGDGRTDYADSVKGRFTISRDNSKNTLYLQMSSLRAEDTAVYYCASDYYGSGSFAYWGQGTLVTVSS
VL: DIVMTQSPDSLAVSLGERATINCKASQDVSTAVAWYQQKPGQPPKLLIHSASYRYTGVPDRFSGSGSGTDFTLTISSLQAEDVAVYYCQQHYSIPLTFGQGTRLEIKR
Ki: < 1 nM

B4: humanized anti-QSOX1 antibody H2bK4 (antibody, human IgG1, kappa, V domains shown)
VH: QITLKESGPTLVKPTQTLTLTCTVSGFSLTGYGVNWIRQPPGKALEWLGMIWGDGRTDYSPSLKSRLTITKDTSKNQVVLTMTNMDPVDTATYYCASDYYGSGSFAYWGRGTLVTVSS
VL: B3 VL
Ki: < 1 nM

The next lines start with the values.

Ki: < 1 nM
B1: humanized anti-QSOX1 antibody H3newK2 (antibody, human IgG1, kappa, V domains shown)
VH: QVQLVESGGGLVQPGRSLRLSCTVSGFSLTGYGVNWFRQAPGKGLEWLGMIWGDGRTDYTASVKGRFTISRDGSKSIAYLQMNSLKTEDTAVYYCASDYYGSGSFAYWGQGTLVTVSS
VL: DIVMTQTPLSLSVTPGQPASISCKASQDVSTAVAWYLQKPGQPPQLLIHSASYRYTGVPDRFSGSGSGTDFTLKISRVEAEDVGVYYCQQHYSIPLTFGPGTKVDIKR

Ki: < 1 nM
B2: humanized anti-QSOX1 antibody H3newK4 (antibody, human IgG1, kappa, V domains shown)
VH: B1 VH
VL: B3 VL
